The source of these data is IntAct's records for PubMed 35512704.

Sequences and labels used below:
B1: Speckle-type POZ protein (Homo sapiens), O43791 (parent)
chain: MSRVPSPPPPAEMSSGPVAESWCYTQIKVVKFSYMWTINNFSFCREEMGEVIKSSTFSSGANDKLKWCLRVNPKGLDEESKDYLSLYLLLVSCPKSEVRAKFKFSILNAKGEETKAMESQRAYRFVQGKDWGFKKFIRRDFLLDEANGLLPDDKLTLFCEVSVVQDSVNISGQNTMNMVKVPECRLADELGGLWENSRFTDCCLCVAGQEFQAHKAILAARSPVFSAMFEHEMEESKKNRVEINDVEPEVFKEMMCFIYTGKAPNLDKMADDLLAAADKYALERLKVMCEDALCSNLSVENAAEILILADLHSADQLKTQAVDFINYHASDVLETSGWKSMVVSHPHLVAEAYRSLASAQCPFLGPPRKRLKQS
partner: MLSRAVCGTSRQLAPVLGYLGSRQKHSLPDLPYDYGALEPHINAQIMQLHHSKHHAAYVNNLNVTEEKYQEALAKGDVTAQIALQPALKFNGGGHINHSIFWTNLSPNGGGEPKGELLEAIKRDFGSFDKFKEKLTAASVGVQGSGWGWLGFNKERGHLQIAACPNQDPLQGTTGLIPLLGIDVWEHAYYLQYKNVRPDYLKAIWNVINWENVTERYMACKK
B2: Speckle-type POZ protein (Homo sapiens), O43791 (parent)
chain: B1 chain
partner: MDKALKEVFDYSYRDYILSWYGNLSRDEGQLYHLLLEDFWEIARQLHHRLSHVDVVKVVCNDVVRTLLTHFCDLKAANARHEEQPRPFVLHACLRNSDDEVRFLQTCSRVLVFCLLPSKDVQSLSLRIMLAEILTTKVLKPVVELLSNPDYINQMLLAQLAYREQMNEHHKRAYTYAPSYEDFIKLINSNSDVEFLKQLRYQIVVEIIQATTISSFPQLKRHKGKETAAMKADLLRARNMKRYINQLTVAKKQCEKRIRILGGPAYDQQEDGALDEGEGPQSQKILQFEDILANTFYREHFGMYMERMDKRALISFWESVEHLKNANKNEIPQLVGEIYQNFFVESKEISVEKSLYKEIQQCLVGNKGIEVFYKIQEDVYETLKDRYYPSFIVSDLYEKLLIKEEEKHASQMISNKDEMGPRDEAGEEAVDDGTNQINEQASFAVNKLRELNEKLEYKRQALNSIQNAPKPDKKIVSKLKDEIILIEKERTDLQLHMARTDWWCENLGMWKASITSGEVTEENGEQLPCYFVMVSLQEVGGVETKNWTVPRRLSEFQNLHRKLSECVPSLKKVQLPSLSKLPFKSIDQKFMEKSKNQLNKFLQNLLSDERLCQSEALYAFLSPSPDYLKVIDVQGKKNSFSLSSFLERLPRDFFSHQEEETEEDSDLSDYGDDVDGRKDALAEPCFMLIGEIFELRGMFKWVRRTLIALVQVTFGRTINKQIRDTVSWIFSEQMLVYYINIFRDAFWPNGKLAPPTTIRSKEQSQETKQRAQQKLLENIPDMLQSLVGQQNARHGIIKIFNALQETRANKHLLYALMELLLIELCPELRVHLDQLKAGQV

The first assay covers variants of B1. As to conditions: with sodm_human SOD2, P04179.
Take MSRVPSPPPPAEMSSGPVAESWCYTQIKVVKFSYMWTINNFSFCREEMGEVIKSSTFSSGANDKLKWCLRVNPKGLDEESKDYLSLCLLLVSCPKSEVRAKFKFSILNAKGEETKAMESQRAYRFVQGKDWGFKKFIRRDFLLDEANGLLPDDKLTLFCEVSVVQDSVNISGQNTMNMVKVPECRLADELGGLWENSRFTDCCLCVAGQEFQAHKAILAARSPVFSAMFEHEMEESKKNRVEINDVEPEVFKEMMCFIYTGKAPNLDKMADDLLAAADKYALERLKVMCEDALCSNLSVENAAEILILADLHSADQLKTQAVDFINYHASDVLETSGWKSMVVSHPHLVAEAYRSLASAQCPFLGPPRKRLKQS [Y87C]: the “effect of a mutation on the interaction” value is listed as “with no effect”.

A further assay covers variants of B1. As to conditions: with sodm_human SOD2, P04179. The source holds these as a separate data set.
For the variant MSRVPSPPPPAEMSSGPVAESWCYTQIKVVKFSYMWTINNFSFCREEMGEVIKSSTFSSGANDKLKWCLRVNPKGLDEESKDYLSLYLLLVSCPKSEVRAKFKFSILNAKGEETKAMESQRAYRFVQGKDWGLKKFIRRDFLLDEANGLLPDDKLTLFCEVSVVQDSVNISGQNTMNMVKVPECRLADELGGLWENSRFTDCCLCVAGQEFQAHKAILAARSPVFSAMFEHEMEESKKNRVEINDVEPEVFKEMMCFIYTGKAPNLDKMADDLLAAADKYALERLKVMCEDALCSNLSVENAAEILILADLHSADQLKTQAVDFINYHASDVLETSGWKSMVVSHPHLVAEAYRSLASAQCPFLGPPRKRLKQS [F133L], the “effect of a mutation on the interaction” value is reported as “with no effect”.

Variants of B1 are the subject of a further assay. The following applies: with sodm_human SOD2, P04179. The source holds these as a separate data set.
For MSRVPSPPPPAEMSSGPVAESWCYTQIKVVKFSYMWTINNFSFCREEMGEVIKSSTFSSGANDKLKWCLRVNPKGLDEESKDYLSLYLLLVSCPKSEVRAKFKFSILNAKGEETKAMESQRAYRFVQGKDWGVKKFIRRDFLLDEANGLLPDDKLTLFCEVSVVQDSVNISGQNTMNMVKVPECRLADELGGLWENSRFTDCCLCVAGQEFQAHKAILAARSPVFSAMFEHEMEESKKNRVEINDVEPEVFKEMMCFIYTGKAPNLDKMADDLLAAADKYALERLKVMCEDALCSNLSVENAAEILILADLHSADQLKTQAVDFINYHASDVLETSGWKSMVVSHPHLVAEAYRSLASAQCPFLGPPRKRLKQS [F133V], the “effect of a mutation on the interaction” value is given as “with no effect”.

Variants of B1 are the subject of a further assay. As to conditions: with sodm_human SOD2, P04179. The source holds these as a separate data set.
MSRVPSPPPPAEMSSGPVAESWCYTQIKVVKFSYMWTINNFSFCREEMGEVIKSSTFSSGANDKLKWCLRVNPKGLDEESKDYLSLYLLLVSCPKSEVRAKCKFSILNAKGEETKAMESQRAYRFVQGKDWGFKKFIRRDFLLDEANGLLPDDKLTLFCEVSVVQDSVNISGQNTMNMVKVPECRLADELGGLWENSRFTDCCLCVAGQEFQAHKAILAARSPVFSAMFEHEMEESKKNRVEINDVEPEVFKEMMCFIYTGKAPNLDKMADDLLAAADKYALERLKVMCEDALCSNLSVENAAEILILADLHSADQLKTQAVDFINYHASDVLETSGWKSMVVSHPHLVAEAYRSLASAQCPFLGPPRKRLKQS [F102C]: the “effect of a mutation on the interaction” value is recorded as “with no effect”.

A further assay covers variants of B2. As to conditions: with snx25_human SNX25, Q9H3E2.
Consider MSRVPSPPPPAEMSSGPVAESWCYTQIKVVKFSYMWTINNFSFCREEMGEVIKSSTFSSGANDKLKWCLRVNPKGLDEESKDYLSLYLLLVSCPKSEVRAKFKFSILNAKGEETKAMESQRAYRFVQGKDWGVKKFIRRDFLLDEANGLLPDDKLTLFCEVSVVQDSVNISGQNTMNMVKVPECRLADELGGLWENSRFTDCCLCVAGQEFQAHKAILAARSPVFSAMFEHEMEESKKNRVEINDVEPEVFKEMMCFIYTGKAPNLDKMADDLLAAADKYALERLKVMCEDALCSNLSVENAAEILILADLHSADQLKTQAVDFINYHASDVLETSGWKSMVVSHPHLVAEAYRSLASAQCPFLGPPRKRLKQS [F133V], for which the “effect of a mutation on the interaction” value is “with no effect”.

The variants in the next assay derive from B2. The following applies: with snx25_human SNX25, Q9H3E2. The source holds these as a separate data set.
For MSRVPSPPPPAEMSSGPVAESWCYTQIKVVKFSYMWTINNFSFCREEMGEVIKSSTFSSGANDKLKWCLRVNPKGLDEESKDYLSLYLLLVSCPKSEVRAKFKFSILNAKGEETKAMESQRAYRFVQGKDWGLKKFIRRDFLLDEANGLLPDDKLTLFCEVSVVQDSVNISGQNTMNMVKVPECRLADELGGLWENSRFTDCCLCVAGQEFQAHKAILAARSPVFSAMFEHEMEESKKNRVEINDVEPEVFKEMMCFIYTGKAPNLDKMADDLLAAADKYALERLKVMCEDALCSNLSVENAAEILILADLHSADQLKTQAVDFINYHASDVLETSGWKSMVVSHPHLVAEAYRSLASAQCPFLGPPRKRLKQS [F133L], the “effect of a mutation on the interaction” value is on record as “with no effect”.

Variants of B2 are the subject of the next assay. The following applies: with snx25_human SNX25, Q9H3E2. This is another data set of the same source.
MSRVPSPPPPAEMSSGPVAESWCYTQIKVVKFSYMWTINNFSFCREEMGEVIKSSTFSSGANDKLKWCLRVNPKGLDEESKDYLSLCLLLVSCPKSEVRAKFKFSILNAKGEETKAMESQRAYRFVQGKDWGFKKFIRRDFLLDEANGLLPDDKLTLFCEVSVVQDSVNISGQNTMNMVKVPECRLADELGGLWENSRFTDCCLCVAGQEFQAHKAILAARSPVFSAMFEHEMEESKKNRVEINDVEPEVFKEMMCFIYTGKAPNLDKMADDLLAAADKYALERLKVMCEDALCSNLSVENAAEILILADLHSADQLKTQAVDFINYHASDVLETSGWKSMVVSHPHLVAEAYRSLASAQCPFLGPPRKRLKQS [Y87C]: the “effect of a mutation on the interaction” value is “with no effect”.

In a further assay the parent is B2. As to conditions: with snx25_human SNX25, Q9H3E2. This is another data set of the same source.
For the variant MSRVPSPPPPAEMSSGPVAESWCYTQIKVVKFSYMWTINNFSFCREEMGEVIKSSTFSSGANDKLKWCLRVNPKGLDEESKDYLSLYLLLVSCPKSEVRAKCKFSILNAKGEETKAMESQRAYRFVQGKDWGFKKFIRRDFLLDEANGLLPDDKLTLFCEVSVVQDSVNISGQNTMNMVKVPECRLADELGGLWENSRFTDCCLCVAGQEFQAHKAILAARSPVFSAMFEHEMEESKKNRVEINDVEPEVFKEMMCFIYTGKAPNLDKMADDLLAAADKYALERLKVMCEDALCSNLSVENAAEILILADLHSADQLKTQAVDFINYHASDVLETSGWKSMVVSHPHLVAEAYRSLASAQCPFLGPPRKRLKQS [F102C], the “effect of a mutation on the interaction” value is given as “with no effect”.
